This is an account of results in paper PMC10786891, “Massively parallel profiling of RNA-targeting CRISPR-Cas13d”.

T1: EsCas13d, nuclease-dead (Eubacterium siraeum, UniProt B0MS50, R295A;H300A;R849A;H854A)
T1 sequence: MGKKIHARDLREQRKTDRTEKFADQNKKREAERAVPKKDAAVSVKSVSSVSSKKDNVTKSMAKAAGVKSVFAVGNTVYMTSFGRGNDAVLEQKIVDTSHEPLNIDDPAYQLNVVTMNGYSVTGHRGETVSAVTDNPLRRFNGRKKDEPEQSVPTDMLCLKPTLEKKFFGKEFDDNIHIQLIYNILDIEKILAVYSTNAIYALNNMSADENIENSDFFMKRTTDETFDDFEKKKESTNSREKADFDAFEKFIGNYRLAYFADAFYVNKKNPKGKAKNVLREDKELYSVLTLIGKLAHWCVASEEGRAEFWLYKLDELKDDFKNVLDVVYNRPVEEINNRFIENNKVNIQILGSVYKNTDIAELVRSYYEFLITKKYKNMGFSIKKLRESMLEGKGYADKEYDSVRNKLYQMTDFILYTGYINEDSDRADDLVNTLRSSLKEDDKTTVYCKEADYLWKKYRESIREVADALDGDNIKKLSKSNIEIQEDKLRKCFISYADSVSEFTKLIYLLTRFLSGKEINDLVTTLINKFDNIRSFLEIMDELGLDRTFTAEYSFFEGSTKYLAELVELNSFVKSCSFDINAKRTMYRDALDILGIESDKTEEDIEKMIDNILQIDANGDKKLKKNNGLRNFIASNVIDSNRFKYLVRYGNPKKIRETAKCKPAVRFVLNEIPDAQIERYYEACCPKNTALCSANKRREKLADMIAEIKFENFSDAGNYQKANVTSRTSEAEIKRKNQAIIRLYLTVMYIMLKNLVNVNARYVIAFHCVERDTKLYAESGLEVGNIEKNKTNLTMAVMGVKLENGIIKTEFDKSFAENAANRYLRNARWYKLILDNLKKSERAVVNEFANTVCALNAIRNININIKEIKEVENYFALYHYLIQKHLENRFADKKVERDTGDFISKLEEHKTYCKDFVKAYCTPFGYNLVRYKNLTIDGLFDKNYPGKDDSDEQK

B1: target 1 insU 3' of 18,insG 3' of 10 (mixed)
RNA 1: CACCCGUGCAAAAAUGCAGGGGUCUAAAACUGAGCGGAUAACCUCUCUAUGG
RNA 2: GGGAAUGGAUCCACAUCUACGAAUUCGUACCAUAUGAGAGGUUGAUCCGCUCACCGAGAUCGGAAGAGCACACGU
B2: target 1 insU 3' of 15,insU 3' of 7 (mixed)
RNA 1: B1 RNA 1
RNA 2: B1 RNA 2 with U35G, G36A, A37G, G38U, G44A, A45U, U46C, C47U
B3: target 1 insC 3' of 22,insG 3' of 2 (mixed)
RNA 1: B1 RNA 1
RNA 2: GGGAAUGGAUCCACAUCUACGAAUUCGUACCCAUAGAGAGGUUAUCCGCUCGACCGAGAUCGGAAGAGCACACGU
B4: target 1 insC 3' of 12,insG 3' of 1 (mixed)
RNA 1: B1 RNA 1
RNA 2: GGGAAUGGAUCCACAUCUACGAAUUCGUACCAUAGAGAGGCUUAUCCGCUCAGCCGAGAUCGGAAGAGCACACGU
B5: target 1 insG 3' of 22,insC 3' of 3 (mixed)
RNA 1: B1 RNA 1
RNA 2: B3 RNA 2 with C31G, G52C
B6: target 1 insC 3' of 18,insA 3' of 4 (mixed)
RNA 1: B1 RNA 1
RNA 2: B1 RNA 2 with U35C, G44A, A45U, U46C, C48G, G49C, C50A
B7: target 1 U11A,A18G (mixed)
RNA 1: B1 RNA 1
RNA 2: GGGAAUGGAUCCACAUCUACGAAUUCGUACCAUGGAGAGGAUAUCCGCUCACCGAGAUCGGAAGAGCACACGU
B8: target 1 C6U,C7A (mixed)
RNA 1: B1 RNA 1
RNA 2: B7 RNA 2 with G34A, A41U, C45A, C46U
B9: target 1 C6G,U19A (mixed)
RNA 1: B1 RNA 1
RNA 2: B7 RNA 2 with U33A, G34A, A41U, C46G
B10: target 1 insG 3' of 16,insA 3' of 13 (mixed)
RNA 1: B1 RNA 1
RNA 2: B1 RNA 2 with U35G, G36A, A37G, G41A, U42G, G44U
B11: target 1 del1,del5 (mixed)
RNA 1: B1 RNA 1
RNA 2: GGGAAUGGAUCCACAUCUACGAAUUCGUACCAUAGAGAGGUUAUCCCUCCCGAGAUCGGAAGAGCACACGU
B12: target 1 A14G,C22A (mixed)
RNA 1: B1 RNA 1
RNA 2: B7 RNA 2 with C30A, G34A, A38G, A41U
B13: target 1 A9U,U10C (mixed)
RNA 1: B1 RNA 1
RNA 2: B7 RNA 2 with G34A, A41U, U42C, A43U
B14: target 1 U8C,G17U (mixed)
RNA 1: B1 RNA 1
RNA 2: B7 RNA 2 with G34A, G35U, A41U, U44C
B15: target 1 insC 3' of 12,insA 3' of 2 (mixed)
RNA 1: B1 RNA 1
RNA 2: B4 RNA 2 with G53A
B16: target 1 insU 3' of 21,insA 3' of 10 (mixed)
RNA 1: B1 RNA 1
RNA 2: B1 RNA 2 with A32U, U33A, A34U, U35A, G44A
B17: target 1 insA 3' of 22 (mixed)
RNA 1: B1 RNA 1
RNA 2: GGGAAUGGAUCCACAUCUACGAAUUCGUACACAUAGAGAGGUUAUCCGCUCACCGAGAUCGGAAGAGCACACGU
B18: target 1 insC 3' of 9,insG 3' of 8 (mixed)
RNA 1: B1 RNA 1
RNA 2: GGGAAUGGAUCCACAUCUACGAAUUCGUACCAUAGAGAGGUUACUGCCGCUCACCGAGAUCGGAAGAGCACACGU
B19: target 1 insC 3' of 13,insG 3' of 6 (mixed)
RNA 1: B1 RNA 1
RNA 2: B18 RNA 2 with G40C, U41G, A43U, C44A, G46C, C48G
B20: target 1 insU 3' of 20,insC 3' of 17 (mixed)
RNA 1: B1 RNA 1
RNA 2: B1 RNA 2 with A34U, U35A, A37C, G38A, A39G, G40A, U42G, G44U
B21: target 1 insA 3' of 13,insU 3' of 9 (mixed)
RNA 1: B1 RNA 1
RNA 2: B18 RNA 2 with G40A, U41G, A43U, C44A, G46U
B22: target 1 insU 3' of 15,insC 3' of 9 (mixed)
RNA 1: B1 RNA 1
RNA 2: B1 RNA 2 with U35G, G36A, A37G, G38U, G44A, A45C
B23: target 1 insC 3' of 12,insU 3' of 1 (mixed)
RNA 1: B1 RNA 1
RNA 2: B4 RNA 2 with G53U
B24: target 1 insC 3' of 12,insC 3' of 1 (mixed)
RNA 1: B1 RNA 1
RNA 2: B4 RNA 2 with G53C
B25: target 1 insC 3' of 11,insA 3' of 6 (mixed)
RNA 1: B1 RNA 1
RNA 2: B18 RNA 2 with U42C, A43U, C44A, G46C, C48A
B26: target 1 C4A,G5U (mixed)
RNA 1: B1 RNA 1
RNA 2: B7 RNA 2 with G34A, A41U, G47U, C48A
B27: target 1 insU 3' of 18,insA 3' of 7 (mixed)
RNA 1: B1 RNA 1
RNA 2: B1 RNA 2 with G44A, A45U, U46C, C47A
B28: target 1 U8A,G13A (mixed)
RNA 1: B1 RNA 1
RNA 2: B7 RNA 2 with G34A, G39A, A41U, U44A
B29: target 1 insG 3' of 8,insG 3' of 7 (mixed)
RNA 1: B1 RNA 1
RNA 2: B18 RNA 2 with C44U, U45G, G46C, C47G
B30: target 1 C4G,U19G (mixed)
RNA 1: B1 RNA 1
RNA 2: B7 RNA 2 with U33G, G34A, A41U, C48G
B31: target 1 A9U,C21A (mixed)
RNA 1: B1 RNA 1
RNA 2: B7 RNA 2 with C31A, G34A, A41U, A43U
B32: target 1 U3A,A16C (mixed)
RNA 1: B1 RNA 1
RNA 2: B7 RNA 2 with G34A, A36C, A41U, U49A

Broadly, the Kd is the concentration at which binding is half-saturated. The low end stands for a tighter complex, the high end for a looser complex.

Residue numbers refer to the chain shown, from its start. Numbers in names are those of the source.

The series deals with T1, EsCas13d, nuclease-dead. As to the kind of experiment: crRNA (strand 1, pre-loaded); Mg2+; 40 mM Tris-HCl pH 7.5, 150 mM NaCl, 6 mM MgCl2, 1 mM DTT, 0.1% Tween-20, 0.2 mg/ml BSA; 25 C; 10 min per concentration, then washed. As to conditions: tags: His6-TwinStrep-SUMO cleaved; N-terminal SNAP kept (SNAP-Surface 488); label: 3' end held by stalled T7 RNA polymerase.
Consider B1, for which the Kd was 68 ± 22 nM.

B2 showed a dissociation constant Kd of 8.47 ± 0.27 nM.

Take B3: the affinity, expressed as Kd, was 21.1 ± 3.2 nM.

Molecule B4 came in with a Kd of 8.5 ± 1.2 nM.

Consider B5, for which the affinity, expressed as Kd, was 31.2 ± 3.4 nM.

B6 yielded a Kd of 38 ± 9 nM.

On to B7, for which the dissociation constant Kd stood at 80 ± 40 nM.

Take B8: the affinity, expressed as Kd, was 8.6 ± 0.6 nM.

For the molecule B9, the Kd came out at 35 ± 5 nM.

B10 came in with a Kd of 16.1 ± 1.5 nM.

B11 yielded a dissociation constant Kd of 20.4 ± 1.2 nM.

In turn, B12 gave a dissociation constant Kd of 40 ± 4 nM.

Turning to B13, the dissociation constant (Kd) came out at 8.6 ± 0.9 nM.

B14 yielded a dissociation constant Kd of 41 ± 4 nM.

With B15, the equilibrium dissociation constant (Kd) was found to be 9.9 ± 1.1 nM.

Molecule B16 registered an equilibrium dissociation constant (Kd) of 39.2 ± 2.4 nM.

B17 yielded a dissociation constant (Kd) of 14.8 ± 1.1 nM.

B18 came in with a Kd of 11.1 ± 0.4 nM.

B19 displayed a Kd of 14.6 ± 1.6 nM.

In the case of B20, the dissociation constant (Kd) stood at 44 ± 8 nM.

B21 registered a Kd of 4.6 ± 0.5 nM.

With B22, binding was characterised by a dissociation constant (Kd) of 67 ± 7 nM.

For B23, binding was put at a Kd of 12 ± 1.1 nM.

For B24, the affinity, expressed as Kd, was 7.7 ± 0.5 nM.

Molecule B25 registered an equilibrium dissociation constant (Kd) of 47 ± 14 nM.

For the molecule B26, the affinity, expressed as Kd, was 30.6 ± 2.4 nM.

B27 yielded a Kd of 23.6 ± 2.6 nM.

Molecule B28 registered a Kd of 15 ± 0.7 nM.

With B29, the Kd turned out to be 8.24 ± 0.23 nM.

B30 yielded a dissociation constant Kd of 100 ± 50 nM.

Molecule B31 displayed a Kd of 35.8 ± 2.3 nM.

On to B32, for which the equilibrium dissociation constant (Kd) came out at 76 ± 7 nM.
